Experimental findings from the supplement of paper PMC10567573 are described below.

B1: CDC25A (parent)
chain: KPIVPTDGKRVIVVFHCEFSSERG
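Further: lentivirally expressed fusions sorted by FACS into six bins by GFP to DsRed ratio, PSI derived from sequencing read proportions per bin multiplied by bin number.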

The variants in this data set derive from B1. Kind of data set: protein stability index of a GFP-peptide fusion (GPS, HEK-293T) (PSI 1-6); higher = more stable. Particulars: c terminus: a fixed tail appended.
As to KPIVPTDTKRVIVVFHCEFSSERG, the protein stability index was determined as 2.3.
As for KPIVPTDQKRVIVVFHCEFSSERG, the protein stability index is 1.51.
For KPIVPTDVKRVIVVFHCEFSSERG, the protein stability index came to 5.1.
In the case of KPIVPTDRKRVIVVFHCEFSSERG, the protein stability index stood at 2.3.
For the variant KPIVPTDYKRVIVVFHCEFSSERG, the protein stability index amounted to 2.16.
The same measure for KPIVPTDPKRVIVVFHCEFSSERG: 1.52; for KPIVPTDWKRVIVVFHCEFSSERG: 2.51; for KPIVPTDGKRVIVHFHCEFSSERG: 2.54.
KPIVPTDGKRVIVWFHCEFSSERG: the protein stability index was determined as 2.09.
With KPIVPTDGKRVIVPFHCEFSSERG, the protein stability index stood at 3.44.
As for KPIVPTDGKRVIVMFHCEFSSERG, the protein stability index is 1.9.
Regarding KPIVPTDGKRVIVIFHCEFSSERG, the protein stability index stood at 2.56.
The same measure for KPIVPTDGKRVIVTFHCEFSSERG: 1.72.
For the variant KPIVPTDGKRVIVGFHCEFSSERG, the protein stability index worked out at 2.69.
Regarding KPIVPTDGKRVIVYFHCEFSSERG, the protein stability index came out at 2.6.
Take KPIVPTDGKRVIVSFHCEFSSERG: the protein stability index stood at 2.52.
In the case of KPIVPTDGKRVIVDFHCEFSSERG, the protein stability index stood at 3.36.
The same measure for KPIVPTDGKRVIVNFHCEFSSERG: 2.35.
As for KPIVPTDGKRVIVLFHCEFSSERG, the protein stability index worked out at 2.17.
The same measure for KPIVPTDGKRVIVQFHCEFSSERG: 2.24; for KPIVPTDGKRVIVRFHCEFSSERG: 2.09; for KPIVPTDGKRVIVAFHCEFSSERG: 1.92.
As for KPIVPTDGKRVIVFFHCEFSSERG, the protein stability index is 1.83.
Regarding KPIVPTDGKRVIVEFHCEFSSERG, the protein stability index worked out at 2.67.
Turning to KPIVPTDGKRVIVCFHCEFSSERG, the protein stability index was determined as 2.57.
For KPIVPTDGKRVIVKFHCEFSSERG, the protein stability index is 2.43.
Turning to KPIVPTDGKRHIVVFHCEFSSERG, the protein stability index turned out to be 1.58.
As to KPIVPTDGKRNIVVFHCEFSSERG, the protein stability index came to 2.14.
For the variant KPIVPTDGKRTIVVFHCEFSSERG, the protein stability index turned out to be 1.76.
Consider KPIVPTDGKRPIVVFHCEFSSERG, for which the protein stability index worked out at 2.31.
With KPIVPTDGKRIIVVFHCEFSSERG, the protein stability index turned out to be 3.01.
Consider KPIVPTDGKRSIVVFHCEFSSERG, for which the protein stability index stood at 2.35.
On to KPIVPTDGKRLIVVFHCEFSSERG, for which the protein stability index is 2.82.
For the variant KPIVPTDGKRYIVVFHCEFSSERG, the protein stability index worked out at 2.59.
Take KPIVPTDGKRMIVVFHCEFSSERG: the protein stability index came out at 2.06.
As for KPIVPTDGKRFIVVFHCEFSSERG, the protein stability index worked out at 2.11.
Consider KPIVPTDGKRWIVVFHCEFSSERG, for which the protein stability index was determined as 3.24.
Turning to KPIVPTDGKRKIVVFHCEFSSERG, the protein stability index stood at 2.51.
Consider KPIVPTDGKRQIVVFHCEFSSERG, for which the protein stability index was found to be 2.25.
For KPIVPTDGKRDIVVFHCEFSSERG, the protein stability index amounted to 2.65.
As for KPIVPTDGKRGIVVFHCEFSSERG, the protein stability index came to 2.21.
Take KPIVPTDGKREIVVFHCEFSSERG: the protein stability index was determined as 3.05.
For the variant KPIVPTDGKRRIVVFHCEFSSERG, the protein stability index amounted to 1.68.
On to KPIVPTDGKRAIVVFHCEFSSERG, for which the protein stability index is 1.93.
In the case of KPIVPTDGKRCIVVFHCEFSSERG, the protein stability index is 1.57.
The same measure for KPIVPTDGKVVIVVFHCEFSSERG: 2.76.
As to KPIVPTDGKQVIVVFHCEFSSERG, the protein stability index came to 2.14.
KPIVPTDGKEVIVVFHCEFSSERG: the protein stability index worked out at 2.96.
As to KPIVPTDGKIVIVVFHCEFSSERG, the protein stability index was determined as 1.45.
The same measure for KPIVPTDGKDVIVVFHCEFSSERG: 1.77; for KPIVPTDGKTVIVVFHCEFSSERG: 2.54.
For KPIVPTDGKPVIVVFHCEFSSERG, the protein stability index is 3.09.
On to KPIVPTDGKAVIVVFHCEFSSERG, for which the protein stability index was determined as 1.93.
As to KPIVPTDGKYVIVVFHCEFSSERG, the protein stability index was found to be 2.95.
With KPIVPTDGKMVIVVFHCEFSSERG, the protein stability index was found to be 2.6.
The same measure for KPIVPTDGKLVIVVFHCEFSSERG: 3.23.
As for KPIVPTDGKGVIVVFHCEFSSERG, the protein stability index was found to be 2.54.
On to KPIVPTDGKWVIVVFHCEFSSERG, for which the protein stability index worked out at 4.02.
With KPIVPTDGKCVIVVFHCEFSSERG, the protein stability index is 3.54.
The same measure for KPIVPTDGKFVIVVFHCEFSSERG: 2.43; for KPIVPTDGKNVIVVFHCEFSSERG: 2.39; for KPIVPTDGKKVIVVFHCEFSSERG: 2.51.
As for KPIVPTDGKSVIVVFHCEFSSERG, the figure is 2.33.
For KPIVPTDGMRVIVVFHCEFSSERG, the protein stability index stood at 2.36.
Consider KPIVPTDGARVIVVFHCEFSSERG, for which the protein stability index is 1.56.
As to KPIVPTDGTRVIVVFHCEFSSERG, the protein stability index worked out at 2.66.
As to KPIVPTDGFRVIVVFHCEFSSERG, the protein stability index amounted to 2.2.
KPIVPTDGWRVIVVFHCEFSSERG: the protein stability index stood at 2.4.
The same measure for KPIVPTDGPRVIVVFHCEFSSERG: 1.94; for KPIVPTDGHRVIVVFHCEFSSERG: 2.19; for KPIVPTDGSRVIVVFHCEFSSERG: 2.4.
KPIVPTDGGRVIVVFHCEFSSERG: the protein stability index amounted to 2.86.
For the variant KPIVPTDGNRVIVVFHCEFSSERG, the protein stability index amounted to 2.31.
On to KPIVPTDGVRVIVVFHCEFSSERG, for which the protein stability index was found to be 2.77.
Regarding KPIVPTDGQRVIVVFHCEFSSERG, the protein stability index is 3.32.
On to KPIVPTDGLRVIVVFHCEFSSERG, for which the protein stability index turned out to be 2.69.
With KPIVPTDGCRVIVVFHCEFSSERG, the protein stability index turned out to be 2.67.
Regarding KPIVPTDGERVIVVFHCEFSSERG, the protein stability index was 2.58.
KPIVPTDGRRVIVVFHCEFSSERG: the protein stability index turned out to be 2.92.
Take KPIVPTDGDRVIVVFHCEFSSERG: the protein stability index turned out to be 2.19.
The same measure for KPIVPTDGKRVIVVFCCEFSSERG: 2.31; for KPIVPTDGKRVIVVFQCEFSSERG: 1.83.
As for KPIVPTDGKRVIVVFPCEFSSERG, the figure is 2.46; as for KPIVPTDGKRVIVVFFCEFSSERG, 2.41.
The same measure for KPIVPTDGKRVIVVFKCEFSSERG: 1.49.
Regarding KPIVPTDGKRVIVVFICEFSSERG, the protein stability index is 2.85.
As for KPIVPTDGKRVIVVFTCEFSSERG, the protein stability index was found to be 3.6.
As for KPIVPTDGKRVIVVFNCEFSSERG, the protein stability index is 1.87.
Take KPIVPTDGKRVIVVFECEFSSERG: the protein stability index came to 1.5.
As for KPIVPTDGKRVIVVFGCEFSSERG, the protein stability index is 1.76.
For KPIVPTDGKRVIVVFVCEFSSERG, the protein stability index was 2.32.
As for KPIVPTDGKRVIVVFRCEFSSERG, the protein stability index is 3.3.
Consider KPIVPTDGKRVIVVFACEFSSERG, for which the protein stability index worked out at 1.79.
For the variant KPIVPTDGKRVIVVFMCEFSSERG, the protein stability index worked out at 4.57.
